Results: patent US20190352418A1 (AGENUS, published 2019)
Where a chain is given by its changes, count along the chain named. Names and notes keep the numbering of the source. Where two headings read alike, the source gives them in different places.

Tests used:
[1] = target: T1, recombinant cynomolgus CD73 protein fused with a 6×His-tag (Sino Biological, 90192-C08H) (cynomolgus, UniProt A0A2K5V5U7 27-547); experiment: SPR; antibody on Protein A chip, CD73-His as analyte
T1 sequence: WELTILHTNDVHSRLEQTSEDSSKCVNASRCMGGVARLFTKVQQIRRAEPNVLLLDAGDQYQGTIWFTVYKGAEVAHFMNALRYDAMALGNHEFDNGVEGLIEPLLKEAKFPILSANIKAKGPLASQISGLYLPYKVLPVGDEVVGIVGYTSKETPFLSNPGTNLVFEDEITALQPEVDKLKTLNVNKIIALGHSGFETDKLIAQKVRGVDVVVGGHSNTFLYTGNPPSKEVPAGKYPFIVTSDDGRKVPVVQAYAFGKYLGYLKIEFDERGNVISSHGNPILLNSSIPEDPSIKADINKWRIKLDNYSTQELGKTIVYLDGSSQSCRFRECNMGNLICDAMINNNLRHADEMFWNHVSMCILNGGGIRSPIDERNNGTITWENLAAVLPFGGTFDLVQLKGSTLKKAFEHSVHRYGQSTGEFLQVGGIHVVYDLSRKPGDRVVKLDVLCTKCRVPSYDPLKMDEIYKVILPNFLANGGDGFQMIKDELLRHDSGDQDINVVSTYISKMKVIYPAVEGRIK
Description: (§1) The sensor chip was regenerated between cycles with a 30-sec injection of 10 mM glycine, pH 1.5. Sensograms were evaluated and fit to a simple Langmuir 1:1 interaction model using the global data analysis option of BiaEvaluation 3.1 software. Data quality was verified by visually inspecting deviations and curve fitting, and by evaluating the parameters of Rmax, Chi2, and Tc.

[2] = target: T2, recombinant mouse CD73 protein fused with a 6×His-tag (R&D Systems, 4488EN) (mouse, UniProt Q61503 29-549, limits assumed); experiment: as above
T2 sequence (looked up): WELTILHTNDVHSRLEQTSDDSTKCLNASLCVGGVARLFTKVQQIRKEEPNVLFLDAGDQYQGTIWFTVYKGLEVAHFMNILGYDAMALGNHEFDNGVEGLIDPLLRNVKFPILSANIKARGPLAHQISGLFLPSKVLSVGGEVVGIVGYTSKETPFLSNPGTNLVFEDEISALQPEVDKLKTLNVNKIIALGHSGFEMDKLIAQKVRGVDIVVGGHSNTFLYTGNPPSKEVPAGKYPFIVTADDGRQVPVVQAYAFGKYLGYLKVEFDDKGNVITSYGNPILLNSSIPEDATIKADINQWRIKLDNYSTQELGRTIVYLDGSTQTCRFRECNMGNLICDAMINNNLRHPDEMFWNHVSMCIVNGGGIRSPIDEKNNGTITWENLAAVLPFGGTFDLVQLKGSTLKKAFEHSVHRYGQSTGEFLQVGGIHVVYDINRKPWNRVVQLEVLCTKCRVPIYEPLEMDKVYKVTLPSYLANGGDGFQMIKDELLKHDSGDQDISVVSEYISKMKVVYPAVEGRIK
Description: as §1

[3] = target: T3, recombinant human CD73 protein fused with a 6×His-tag (R&D Systems, 5795EN) (human, UniProt P21589 27-547); experiment: as above
T3 construct: bought protein; not shown: 6×His-tag
T3 sequence: T1 sequence with T199M, M353T, I466V

human CD73 on cells [4] = target: T4, human CD73 on cells (human, UniProt P21589 27-549); experiment: flow cytometry, CHO cells expressing human CD73, MFI vs antibody concentration
T4 construct: whole, on cells; also called full-length human CD73 on CHO cells; human CD73 on Jurkat cells
T4 sequence (looked up): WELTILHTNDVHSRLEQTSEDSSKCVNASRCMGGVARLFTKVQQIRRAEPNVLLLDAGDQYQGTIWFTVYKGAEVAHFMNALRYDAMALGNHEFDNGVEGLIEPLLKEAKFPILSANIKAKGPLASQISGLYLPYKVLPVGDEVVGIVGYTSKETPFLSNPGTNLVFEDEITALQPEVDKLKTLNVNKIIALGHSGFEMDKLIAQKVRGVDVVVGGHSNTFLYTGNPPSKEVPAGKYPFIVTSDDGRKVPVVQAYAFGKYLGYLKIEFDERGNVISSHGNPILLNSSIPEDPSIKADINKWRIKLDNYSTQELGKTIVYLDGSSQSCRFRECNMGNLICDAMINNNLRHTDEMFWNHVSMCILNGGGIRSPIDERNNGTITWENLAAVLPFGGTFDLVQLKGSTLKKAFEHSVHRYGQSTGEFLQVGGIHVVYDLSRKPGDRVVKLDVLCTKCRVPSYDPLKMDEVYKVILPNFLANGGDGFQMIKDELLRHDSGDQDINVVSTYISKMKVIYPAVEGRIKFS

mouse CD73 on cells = target: T5, mouse CD73 on cells (mouse, UniProt Q61503 29-551); experiment: flow cytometry, CHO cells expressing mouse CD73 (panel CHO-muCD73), MFI vs antibody concentration
T5 construct: whole, on cells; also called full-length mouse CD73 on CHO cells (CHO-muCD73); CD73 on mouse CD8+ T cells
T5 sequence (looked up): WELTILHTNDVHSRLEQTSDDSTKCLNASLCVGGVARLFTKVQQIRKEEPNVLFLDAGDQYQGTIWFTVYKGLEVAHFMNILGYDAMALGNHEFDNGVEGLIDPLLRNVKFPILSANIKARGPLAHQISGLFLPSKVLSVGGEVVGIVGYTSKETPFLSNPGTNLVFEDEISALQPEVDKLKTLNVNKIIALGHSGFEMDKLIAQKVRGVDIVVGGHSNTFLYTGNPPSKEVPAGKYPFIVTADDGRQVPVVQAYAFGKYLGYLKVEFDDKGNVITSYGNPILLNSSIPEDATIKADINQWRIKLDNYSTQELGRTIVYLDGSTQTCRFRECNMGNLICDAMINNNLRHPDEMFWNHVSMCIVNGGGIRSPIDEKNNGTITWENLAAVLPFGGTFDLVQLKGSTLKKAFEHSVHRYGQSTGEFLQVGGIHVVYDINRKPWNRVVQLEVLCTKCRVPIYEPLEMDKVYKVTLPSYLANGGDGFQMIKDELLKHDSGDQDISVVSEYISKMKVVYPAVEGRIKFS
Description: (§2) Briefly, Chinese hamster ovarian (CHO) cells were transduced with lentiviral vectors comprising a mouse, cynomolgus, or human CD73 coding sequence under the control of a CMV promoter, and stable CHO-CD73 cells were generated by antibiotic selection. Expression of CD73 was verified by flow cytometry using positive control antibodies. The stable CHO-CD73 cells were grown in suspension culture in RPMI media supplemented with 10% heat-inactivated FBS at 37° C. and 5% CO₂. […] The cells were then washed twice and analyzed using the LSRFortessa™ flow cytometer (BD Biosciences). FACS data were analyzed using FACS DIVA and WEHI Weasel software, and were plotted with Graphpad Prism software.

cynomolgus CD73 on cells [5] = target: T6, cynomolgus CD73 on cells (cynomolgus, UniProt A0A2K5V5U7 27-549); experiment: flow cytometry, CHO cells expressing cynomolgus CD73, MFI vs antibody concentration
T6 construct: whole, on cells; also called full-length cynomolgus CD73 on CHO cells; CD73 on cynomolgus monkey CD8+ T cells
T6 sequence: T4 sequence (looked up) with M199T, T350A, V466I

cynomolgus CD73 on cells [6] = target: T6, cynomolgus CD73 on cells; experiment: flow cytometry on CHO cells expressing cynomolgus CD73; area under MFI curve
Description: as §2
(§3) The affinities of the humanized anti-CD73 antibodies to membrane-associated CD73 were determined. Specifically, CHO cells ectopically expressing full-length human or cynomolgus CD73 were generated, and the binding of the antibodies to the cells were examined, using the method as described in Example 6.1.3.

cynomolgus CD73 on cells [7] = target: T6, cynomolgus CD73 on cells; experiment: flow cytometry, CHO cells expressing cynomolgus CD73 (panel CHO-cyCD73), MFI vs antibody concentration
Description: as §2

human CD73 on cells [8] = target: T4, human CD73 on cells; experiment: cell-based or functional assay
[9] = target: T3, recombinant human CD73 protein fused …; experiment: cell-based or functional assay
human CD73 on cells [10] = target: T4, human CD73 on cells; experiment: flow cytometry, CHO cells expressing human CD73 (panel CHO-huCD73), MFI vs antibody concentration
Description: as §2

[11] = target: T1, recombinant cynomolgus CD73 protein …; experiment: SPR; antibody on Protein A chip, CD73-His as analyte; remark: listed apart in the source
Description: as §1

[12] = target: T3, recombinant human CD73 protein fused …; experiment: as above; remark: listed apart in the source
Description: as §1

human CD73 on cells [13] = target: T4, human CD73 on cells; experiment: flow cytometry on CHO cells expressing human CD73; area under MFI curve
Description: as §2, §3

human CD73 on cells [14] = target: T4, human CD73 on cells; experiment: cell-based or functional assay; remark: listed apart in the source

B1: BA015 (antibody, human IgG1, kappa, N297A)
heavy: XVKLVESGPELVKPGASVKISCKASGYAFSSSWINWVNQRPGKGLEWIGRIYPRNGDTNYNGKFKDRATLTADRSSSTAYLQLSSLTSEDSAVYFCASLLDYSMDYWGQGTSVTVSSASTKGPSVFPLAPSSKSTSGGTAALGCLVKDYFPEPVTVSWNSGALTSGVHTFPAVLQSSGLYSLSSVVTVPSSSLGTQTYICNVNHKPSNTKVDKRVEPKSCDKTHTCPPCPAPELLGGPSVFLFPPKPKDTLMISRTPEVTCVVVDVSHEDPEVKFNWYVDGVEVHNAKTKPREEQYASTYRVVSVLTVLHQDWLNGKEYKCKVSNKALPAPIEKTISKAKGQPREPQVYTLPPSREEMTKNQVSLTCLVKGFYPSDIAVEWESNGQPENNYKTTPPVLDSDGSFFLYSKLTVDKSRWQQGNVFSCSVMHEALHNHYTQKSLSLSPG
light: DIQMTQSTSSLSASLGDRVTISCRASQDISNYLNWYQQKPDGTVKLLIYYTSRLHSGVPSRFSGSGSGTDYSLTISNLEQEDIATYFCQQGNTLPLTFGAGTKLELKRTVAAPSVFIFPPSDEQLKSGTASVVCLLNNFYPREAKVQWKVDNALQSGNSQESVTEQDSKDSTYSLSSTLTLSKADYEKHKVYACEVTHQGLSSPVTKSFNRGEC
modifications: X at position 1 is E or pyroglutamate
notes: chimeric: BA012 murine variable regions, human IgG1 N297A and human Igκ constant regions
Kd [1]: 0.3 nM
koff [1]: 8.7e-05 s⁻¹
kon [1]: 310000 M⁻¹ s⁻¹
Kd [2]: 10 nM
koff [2]: 0.0006 s⁻¹
kon [2]: 61000 M⁻¹ s⁻¹
Kd [3]: 0.015 nM
koff [3]: 0.00041 s⁻¹
kon [3]: 2.8e+07 M⁻¹ s⁻¹
EC50 (read off the curve) (human CD73 on cells [4]): ~0.1 µg/mL
EC50 (read off the curve) (mouse CD73 on cells): ~0.4 µg/mL
EC50 (read off the curve) (cynomolgus CD73 on cells [5]): ~0.2 µg/mL
AUC (cynomolgus CD73 on cells [6]): 2440
EC50 (read off the curve) (cynomolgus CD73 on cells [7]): ~0.5 µg/mL
AUC, CD73 enzymatic activity on Jurkat cells expressing human CD73 (FIG. 2A) (human CD73 on cells [8]): 239
AUC, enzymatic activity of immobilized recombinant human CD73 (FIGS. 7B-7P) [9]: 91.2
EC50 (read off the curve) (human CD73 on cells [10]): ~0.2 µg/mL
Kd [11]: 0.07 nM
koff [11]: 8.3e-05 s⁻¹
kon [11]: 1.14e+06 M⁻¹ s⁻¹
Kd [12]: 0.088 nM
koff [12]: 0.0002 s⁻¹
kon [12]: 2.27e+06 M⁻¹ s⁻¹
AUC (human CD73 on cells [13]): 113000
AUC, CD73 enzymatic activity on Jurkat cells expressing human CD73 (FIGS. 6B-6P) (human CD73 on cells [14]): 328
